The target in experiment [1] is T1, human CD20 (human, UniProt P11836 1-297).
T1 construct: whole, on cells; also called WT CD20; wild-type (WT) CD20
T1 sequence (looked up): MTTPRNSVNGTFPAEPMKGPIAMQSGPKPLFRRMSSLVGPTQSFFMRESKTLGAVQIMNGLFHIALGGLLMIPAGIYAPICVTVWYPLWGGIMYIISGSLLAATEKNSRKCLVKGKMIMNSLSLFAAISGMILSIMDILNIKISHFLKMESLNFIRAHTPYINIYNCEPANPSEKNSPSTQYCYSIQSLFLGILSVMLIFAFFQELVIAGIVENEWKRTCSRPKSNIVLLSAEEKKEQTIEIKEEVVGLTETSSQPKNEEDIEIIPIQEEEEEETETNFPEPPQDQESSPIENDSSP
Description: flow cytometry on CD20-positive NS/0 cells, control antibody.

The target in experiment [2] is T1, human CD20. Description: flow cytometry blocking assay on CD20-NS/0 cells: pre-incubation with the control, then competitor rituximab-FITC 10 µg/ml. (A flow cytometer gives signals particle by particle.)
Experiment [3] addresses T1, human CD20. Nature of the experiment: flow cytometry, FITC-conjugated antibodies on Daudi and Raji cells.

Molecule human IgM control antibody came in with a Binding CD20-NS/0 (mean fluorescence) (mean fluorescence) in experiment [1] of 9. Also, in experiment [2], the Blocking of rituximab (signal of rituximab-FITC left after pre-incubation) stood at 182. In experiment [1], human IgG1 control antibody returned a Binding CD20-NS/0 (mean fluorescence) (mean fluorescence) of 14. This molecule registered a Blocking of rituximab (signal of rituximab-FITC left after pre-incubation) in experiment [2] of 179.

B1: 11B8 (antibody, V domains shown)
VH: EVQLVQSGGGLVHPGGSLRLSCTGSGFTFSYHAMHWVRQAPGKGLEWVSIIGTGGVTYYADSVKGRFTISRDNVKNSLYLQMNSLRAEDMAVYYCARDYYGAGSFYDGLYGMDVWGQGTTVTVSS
VL: EIVLTQSPATLSLSPGERATLSCRASQSVSSYLAWYQQKPGQAPRLLIYDASNRATGIPARFSGSGSGTDFTLTISSLEPEDFAVYYCQQRSDWPLTFGGGTKVEIK
notes: also called human recombinant monoclonal IgG1,κ anti-CD20 antibody 11B8
In the case of B1, the binding result in experiment [3] is “binds”.

Values taken from patent US20080260641A1 (Genmab, published 2008).
